# Results reported in US20220160939A1, “SELF-ASSEMBLING PEPTIDES AS BRONCHIAL OBSTRUCTION AGENTS” (3-D MATRIX, LTD., priority 2014, published 2022).
# What was measured:
# [1] = Rheological properties of peptide solutions at adjusted salt ionic strength; format: physicochemical
# Description: Based on the visual observation of the effect of salt ionic strength on the properties of the peptide solutions, the effect on the rheological properties of the peptide solutions after adjusting their ionic strength level with NaCl to 0.7 M (PuraMatrix® (SEQ ID NO:1)), 0.2 M (KLD12 (SEQ ID NO:3)) or 0.02 M (IEIK13 (SEQ ID NO:2)), which is closely below the critical ionic strength at which each peptide becomes cloudy, was evaluated. If the ionic strength levels with NaCl of peptide solutions are higher than 0.9 M (PuraMatrix® (SEQ ID NO:1)), 0.3 M (KLD12 (SEQ ID NO:3)) or 0.03 M (IEIK13 (SEQ ID NO:2)), the peptide solutions begin phase separation becoming cloudy and weak. The rheological property of PuraMatrix® (SEQ ID NO:1), KLD12 (SEQ ID NO:3) and IEIK13 (SEQ ID NO:2) solutions was higher after adjusting their ionic strength level with NaCl to 0.7 M (PuraMatrix® (SEQ ID NO:1)), 0.2 M (KLD12 (SEQ ID NO:3)) or 0.02 M (IEIK13 (SEQ ID NO:2)). The results are shown in FIG. 10 for KLD12 (SEQ ID NO:3) 1%, FIG. 11 for IEIK13 (SEQ ID NO:2) 1%, and FIG. 12 for PuraMatrix® (SEQ ID NO:1) 1%, respectively. Frequency sweep tests were performed from 1 rad/s to 10 rad/s at 1 Pa.
# Based on the results of the effect on the rheological properties of the peptide solutions after adjusting their ionic strength level with NaCl to 0.7 M (PuraMatrix® (SEQ ID NO:1)), 0.2 M (KLD12 (SEQ ID NO:3)) or 0.02 M (IEIK13 (SEQ ID NO:2)), the effect on the rheological properties of the peptide solution at various salt ionic strengths was evaluated. […] The results are shown in FIG. 13 for PuraMatrix® (SEQ ID NO:1) 1% solutions and in FIG. 14 for IEIK13 (SEQ ID NO:2) 1% solutions. Frequency sweep tests were performed from 1 rad/sec to 10 rad/sec at 1 Pa and the storage modulus at 1 rad/sec was selected for data.
# Based on the results of the effect on the rheological properties of the peptide solutions and hydrogels after adjusting their ionic strength levels with NaCl, the effect of various salts (KCl, MgCl2, and CaCl2) was also evaluated. The rheological property of PuraMatrix® (SEQ ID NO:1) solutions increases with ionic strength adjustment at 0.15 M of all the salts. Increases of the rheological property of PuraMatrix® (SEQ ID NO:1) solutions with various salts were not predominantly different. However, increases of the rheological property of PuraMatrix® (SEQ ID NO:1) solutions may vary depending on the salting out constant, K of each salt. Constant K is a constant in Cohen's equation: log S=B−KI, where S is solubility, B is idealized solubility, K is salting out constant, and I is ionic strength. With a higher value of constant K and ionic strength of salts, solubility of the peptide may decrease resulting in strong peptide self-assembly with increased hydrophobic effect and higher rheological properties of the peptide solution. The constant K of NaCl may be higher than the other salts. […] The results are shown in FIG. 17 for PuraMatrix® (SEQ ID NO:1) 1% solution before DMEM treatment, and in FIG. 18 for PuraMatrix® (SEQ ID NO:1) 1% hydrogels after DMEM treatment for 10 min Frequency sweep tests were performed from 1 rad/sec to 10 rad/sec at 1 Pa and the storage modulus at 1 rad/sec was selected for data.
# [2] = Appearance of 1.5% peptide solutions with various salts at room temperature; format: physicochemical; settings: for Appearance: room temperature
# Description: The effect of salt ionic strength level on the properties of peptide solutions was evaluated to identify optimized salt ionic strength levels for the peptides as described herein. Increasing the salt ionic strength level of PuraMatrix® (SEQ ID NO:1) and other peptides may generally improve its function and mechanical strength for various clinical applications. To adjust the salt ionic strength of the peptide solutions by way of example, various salt buffer solutions including NaCl, KCl, MgCl2, CaCl2 and DPBS (10×) were added to 2 mL of 1.5% peptide solutions.
substance,measurement,setting,value
Ile-Glu-Ile-Lys-Ile-Glu-Ile-Lys-Ile-Glu-Ile-Lys-Ile [IEIK13],ionic strength up to which the rheological property of 1% solutions increases (decreases above),"[1]; 1% solutions, storage modulus at 1 rad/sec",up to 0.03 M
same,ionic strength level with NaCl above which solutions begin phase separation becoming cloudy and weak,[1]; NaCl,> 0.03 M
same,rheological property after adjusting ionic strength level with NaCl,"[1]; NaCl to 0.7 M (PuraMatrix), 0.2 M (KLD12) or 0.02 M (IEIK13), 1% solutions",higher
same,critical salt ionic strengths at which peptides become cloudy,[2],0.03˜0.04 M
same,Appearance,"[2]; CaCl2 0 M, ionic strength 0 M, conc. 1.5%","Clear, thick gel"
same,Appearance,"[2]; CaCl2 0.005 M, ionic strength 0.015 M, conc. 1.46%","Clear, thick, stiffer gel"
same,Appearance,"[2]; CaCl2 0.0067 M, ionic strength 0.02 M, conc. 1.45%","Clear, thick, stiffer gel"
same,Appearance,"[2]; CaCl2 0.0083 M, ionic strength 0.025 M, conc. 1.44%","Clear, thick, stiffer gel"
same,Appearance,"[2]; CaCl2 0.01 M, ionic strength 0.03 M, conc. 1.43%","Clear, thick, stiffer gel"
same,Appearance,"[2]; CaCl2 0.0117 M, ionic strength 0.035 M, conc. 1.41%","Clear, thick, stiffer gel"
same,Appearance,"[2]; CaCl2 0.0133 M, ionic strength 0.04 M, conc. 1.40%","Slightly cloudy, thick, stiffer gel"
same,Appearance,"[2]; CaCl2 0.015 M, ionic strength 0.045 M, conc. 1.39%","Slightly cloudy, thick, stiffer gel"
same,Appearance,"[2]; CaCl2 0.0167 M, ionic strength 0.05 M, conc. 1.37%","Slightly cloudy, brittle gel"
same,Appearance,"[2]; CaCl2 0.0183 M, ionic strength 0.055 M, conc. 1.36%","Cloudy, phase-separated"
same,Appearance,"[2]; KCl 0 M, ionic strength 0 M, conc. 1.5%","Clear, thick gel"
same,Appearance,"[2]; KCl 0.005 M, ionic strength 0.005 M, conc. 1.46%","Clear, thick, stiffer gel"
same,Appearance,"[2]; KCl 0.01 M, ionic strength 0.01 M, conc. 1.43%","Clear, thick, stiffer gel"
same,Appearance,"[2]; KCl 0.015 M, ionic strength 0.015 M, conc. 1.39%","Clear, thick, stiffer gel"
same,Appearance,"[2]; KCl 0.02 M, ionic strength 0.02 M, conc. 1.35%","Clear, thick, stiffer gel"
same,Appearance,"[2]; KCl 0.025 M, ionic strength 0.025 M, conc. 1.31%","Clear, thick, stiffer gel"
same,Appearance,"[2]; KCl 0.03 M, ionic strength 0.03 M, conc. 1.27%","Clear, thick, stiffer gel"
same,Appearance,"[2]; KCl 0.035 M, ionic strength 0.035 M, conc. 1.24%","Slightly cloudy, brittle gel"
same,Appearance,"[2]; KCl 0.04 M, ionic strength 0.04 M, conc. 1.2%","Slightly cloudy, brittle"
same,Appearance,"[2]; KCl 0.045 M, ionic strength 0.045 M, conc. 1.16%","Cloudy, phase-separated"
same,Appearance,"[2]; MgCl2 0 M, ionic strength 0 M, conc. 1.5%","Clear, thick gel"
same,Appearance,"[2]; MgCl2 0.005 M, ionic strength 0.015 M, conc. 1.46%","Clear, thick, stiffer gel"
same,Appearance,"[2]; MgCl2 0.0067 M, ionic strength 0.02 M, conc. 1.45%","Clear, thick, stiffer gel"
same,Appearance,"[2]; MgCl2 0.0083 M, ionic strength 0.025 M, conc. 1.44%","Clear, thick, stiffer gel"
same,Appearance,"[2]; MgCl2 0.01 M, ionic strength 0.03 M, conc. 1.43%","Clear, thick, stiffer gel"
same,Appearance,"[2]; MgCl2 0.0117 M, ionic strength 0.035 M, conc. 1.41%","Clear, thick, stiffer gel"
same,Appearance,"[2]; MgCl2 0.0133 M, ionic strength 0.04 M, conc. 1.40%","Slightly cloudy, thick, stiffer gel"
same,Appearance,"[2]; MgCl2 0.015 M, ionic strength 0.045 M, conc. 1.39%","Slightly cloudy, stiffer gel"
same,Appearance,"[2]; MgCl2 0.0167 M, ionic strength 0.05 M, conc. 1.37%","Slightly cloudy, brittle gel"
same,Appearance,"[2]; MgCl2 0.0183 M, ionic strength 0.055 M, conc. 1.36%","Cloudy, phase-separated"
same,Appearance,"[2]; NaCl 0 M, ionic strength 0 M, conc. 1.5%","Clear, thick gel"
same,Appearance,"[2]; NaCl 0.005 M, ionic strength 0.005 M, conc. 1.46%","Clear, thick, stiffer gel"
same,Appearance,"[2]; NaCl 0.01 M, ionic strength 0.01 M, conc. 1.43%","Clear, thick, stiffer gel"
same,Appearance,"[2]; NaCl 0.015 M, ionic strength 0.015 M, conc. 1.39%","Clear, thick, stiffer gel"
same,Appearance,"[2]; NaCl 0.02 M, ionic strength 0.02 M, conc. 1.35%","Clear, thick, stiffer gel"
same,Appearance,"[2]; NaCl 0.025 M, ionic strength 0.025 M, conc. 1.31%","Clear, thick, stiffer gel"
same,Appearance,"[2]; NaCl 0.03 M, ionic strength 0.03 M, conc. 1.27%","Slightly cloudy, thick, stiffer gel"
same,Appearance,"[2]; NaCl 0.035 M, ionic strength 0.035 M, conc. 1.24%","Slightly cloudy, brittle gel"
same,Appearance,"[2]; NaCl 0.04 M, ionic strength 0.04 M, conc. 1.2%","Cloudy, phase-separated"
same,"salt ionic strength increase that did not change the clear color, while apparent stiffness increased","[2]; depending on different salts, 1.5% peptide solutions",0.025˜0.035 M
